Results from US20180086841A1 (Merck Sharp & Dohme, published 2018).

Experiments:
human CD27 (A59T) [1] = target: T1, human CD27 (A59T) (human, UniProt P26842 21-260); assay: cell ELISA on CD27-transfected CHOK1 cells, n=2
T1 construct: also called hCD27 (A59T); human CD27 variant p.Ala59Thr
Experimental: (§1) Purified antibodies were assayed for binding to human CD27 expressing CHOK1 cells, human CD27 A59T expressing CHOK1 cells, and cross-reactivity to rhesus CD27 expressing CHOK1 cells using a cell-based ELISA format. Human CD27 expressing CHOK1 cells, human CD27 A59T expressing CHOK1 cells, and rhesus CD27 expressing CHOK1 cells were plated in 96-well tissue-culture plates in 50 μl of DMEM/F12, 10% BCS and gentamycin (CHO-K1 media). Cells were plated at either 2×10⁴ cells/well two days prior to the assay or 4×10⁴ cells/well one day prior to the assay. Media was removed from the wells prior to the assay followed by incubation of mAb in 100 μL fresh culture medium at a starting concentration of 10 μg/mL and 8 step 1:4 serial dilutions. The antibodies were incubated for 30-60 minutes at room temperature and washed 3 times with PBS/0.05% Tween 20 using a cell ELISA washing protocol on the Biotek EL405x Select CW plate washer. […] Assay plates were washed as above and developed with TMB and stopped with TMB stop solution (KPL cat#50-85-06) or 0.1N phosphoric acid. The plate was read on a Molecular Devices VersaMax plate reader at 450 nm/650 nm. Titration curves were used to determine the half-maximal effective concentration (EC₅₀).

human CD27 [2] = target: T2, human CD27 (human, UniProt P26842 21-260); assay: cell ELISA on CD27-transfected CHOK1 cells, n=2
T2 construct: also called hCD27; HsCD27
Experimental: as §1

[3] = target: T3, Macaca mulatta CD27 (mmCD27) (Macaca mulatta (rhesus) / Macaca …, UniProt P26842 21-260 (human entry)); assay: cell ELISA on CD27-transfected CHOK1 cells, n=2
T3 construct: also called Rhesus CD27; rhesus monkey CD27
T3 chain: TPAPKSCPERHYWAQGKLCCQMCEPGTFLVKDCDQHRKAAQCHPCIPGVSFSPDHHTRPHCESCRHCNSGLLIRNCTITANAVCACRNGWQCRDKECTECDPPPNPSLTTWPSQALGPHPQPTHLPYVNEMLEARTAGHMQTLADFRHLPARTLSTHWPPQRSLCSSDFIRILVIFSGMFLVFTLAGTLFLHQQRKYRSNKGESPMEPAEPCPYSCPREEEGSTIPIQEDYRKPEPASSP
Experimental: as §1

[4] = target: T3, Macaca mulatta CD27 (mmCD27); assay: flow cytometry MFI, CD4+ T cells in rhesus peripheral blood, n=4
Experimental: (§2) Upon receipt, blood was visually confirmed to be devoid of obvious signs of lysis or clotting. […] Red blood cells (RBCs) were then lysed by incubation with 1.7 mL of Ammonium-Chloride-Potassium red blood cell lysing solution (Life Technologies, catalog no. A10492-01) for 5 minutes. The lysis step was repeated once more with 2 ml of ACK lysing solution, and then again with 300 ml of ACK lysing solution. Cells were then washed after adding 1.7 ml of phosphate buffered saline (PBS) (Hyclone, catalog no. SH30028.02). […] After a final wash in SB, samples were acquired in a LSR-Fortessa flow cytometer (BD Biosciences) using the high throughput sampler and data analyzed by FlowJo software (Tree Star Inc).

[5] = target: T3, Macaca mulatta CD27 (mmCD27); assay: cell-based or functional assay
[6] = target: T4, His9G-tagged cynomolgus CD27 recombinant protein (cynomolgus, limits assumed); assay: SPR Biacore 4000, antibody captured on anti-human Fc, His9G-tagged CD27 injected, 1:1 fit;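 also: Double-referenced SPR (blank anti-Fc surface and buffer injection subtracted), KD derived from association and dissociation rate constants, with human and cynomolgus CD27 as analytes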
T4 construct: In-house, transient transfection of HEK293 cells; also called Cyno CD27/His
T4 chain: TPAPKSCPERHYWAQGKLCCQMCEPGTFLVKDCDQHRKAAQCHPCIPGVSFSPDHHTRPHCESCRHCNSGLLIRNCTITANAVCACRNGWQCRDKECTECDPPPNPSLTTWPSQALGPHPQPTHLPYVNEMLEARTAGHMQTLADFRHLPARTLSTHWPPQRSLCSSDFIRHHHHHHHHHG
Text: (§3) Flow cell spots modified with anti-human Fc antibody but lacking CD27 antibodies were used as reference. […] The chip surface was regenerated with a 30 second injection of 3M MgCl₂ after each injection cycle.
(§4) Data were double referenced by subtracting the response from a blank surface and that from a buffer injection and used for analyzing the rate constant of association (kₐ) and dissociation (kd), and the equilibrium dissociation constant KD. The resulting data sets were fitted with a Langmuir 1:1 binding model using the Biacore 4000 BIAevaluation software, version 1.0 (GE/Biacore).

[7] = target: T5, His9G-tagged human CD27 recombinant protein (human, UniProt P26842 21-191); assay: as above
T5 construct: In-house, transient transfection of HEK293 cells; also called Human CD27/His
Text: as §3, §4

human CD27 (A59T) [8] = target: T1, human CD27 (A59T); assay: cell-based or functional assay
human CD27 [9] = target: T2, human CD27; assay: cell-based or functional assay
[10] = target: T3, Macaca mulatta CD27 (mmCD27); assay: cell-based or functional assay
human CD27 [11] = target: T2, human CD27; assay: flow cytometry MFI, CD4+ T cells of human PBMC, N=2 donors
Experimental: (§5) Labeled cells were washed by re-suspending them in 150 ul of staining buffer (SB) followed by centrifugation at 300 g for 5 minutes. Cells were then resuspended in 100 ul of SB containing primary anti-CD27 antibodies at various concentrations, incubated in the dark at 4° C. for 30 minutes, followed by washing and centrifugation steps as previously described. […] Cells were incubated for 30 minutes at 4° C. in the dark, followed by washing and centrifugation steps. Next, cells were stained with a cocktail of phenotypic antibodies for surface markers (CD3, CD4, CD8, CD11b) and incubated for 30 minutes at 4° C. in the dark, followed by washing and centrifugation steps. […] Samples were acquired in a LSR-Fortessa flow cytometer (BD Biosciences) using the high throughput sampler and data analyzed by FlowJo software (Tree Star Inc).

[12] = target: T6, rhesus macaque CD27-Fc fusion protein (rhesus macaque, UniProt P26842 21-191 (human entry), limits assumed); assay: SPR Biacore T200, CD27-Fc amine-coupled, antibody injected, 1:1 Langmuir fit
T6 construct: not shown: Fc part
T6 chain: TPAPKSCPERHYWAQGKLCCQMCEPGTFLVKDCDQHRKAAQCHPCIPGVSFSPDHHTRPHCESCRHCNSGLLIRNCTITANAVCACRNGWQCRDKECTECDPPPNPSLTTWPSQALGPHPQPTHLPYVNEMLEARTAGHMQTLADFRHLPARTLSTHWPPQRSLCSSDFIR

[13] = target: T7, human CD27 A59T-Fc fusion protein (human, UniProt P26842 21-191); assay: as above
T7 construct: not shown: Fc part
T7 chain: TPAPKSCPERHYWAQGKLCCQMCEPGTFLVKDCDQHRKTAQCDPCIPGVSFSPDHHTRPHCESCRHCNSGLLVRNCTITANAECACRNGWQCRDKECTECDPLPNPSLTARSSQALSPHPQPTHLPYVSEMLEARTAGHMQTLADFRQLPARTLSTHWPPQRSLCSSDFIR

[14] = target: T8, human CD27-Fc fusion protein (human, UniProt P26842 21-191); assay: as above
T8 construct: not shown: Fc part

human CD27 [15] = target: T2, human CD27; assay: flow cytometry MFI, CD4+ T cells in human peripheral blood, n=4
Experimental: as §2

human CD27 [16] = target: T2, human CD27; assay: cell ELISA on human CD27 CHOK1 cells, hIgG1
Experimental: (§6) Purified antibodies were assayed for binding to human CD27 expressing CHOK1 cells using a cell-based ELISA format. Human CD27 expressing CHOK1 cells were plated in 96-well tissue-culture plates in 50 μl of DMEM/F12, 10% BCS (bovine calf serum) (CHO-K1 media). Cells were plated at either 2×10⁴ cells/well two days prior to the assay or 4×10⁴ cells/well one day prior to the assay. Media was removed from the wells prior to the assay followed by incubation of mAb in 100 μL fresh culture medium at a starting concentration of 10 μg/mL and 8 step 1:5 serial dilutions (hIgG4 antibodies) or starting concentration of 50 μg/mL and 8 step 1:5 serial dilutions (hIgG1 antibodies). The antibodies were incubated for 30-60 minutes at room temperature and washed 3 times with PBS/0.05% Tween 20 using a cell ELISA washing protocol on the Biotek EL405x Select CW plate washer.

human CD27 [17] = target: T2, human CD27; assay: flow cytometry MFI, CD8+ T cells of human PBMC, N=2 donors
Experimental: as §5

[18] = target: T3, Macaca mulatta CD27 (mmCD27); assay: flow cytometry MFI, CD8+ T cells in rhesus peripheral blood, n=4
Experimental: as §2

human CD27 [19] = target: T2, human CD27; assay: flow cytometry MFI, CD8+ T cells in human peripheral blood, n=4
Experimental: as §2

[20] = target: T3, Macaca mulatta CD27 (mmCD27); assay: flow cytometry on transiently transfected CHO-K1 cells
human CD27 [21] = target: T2, human CD27; assay: as above
Text: HsCD27 and MmCD27 were expressed on CHO-K1 by transient transfection.

human CD27 (A59T) [22] = target: T1, human CD27 (A59T); assay: cell-based or functional assay; remark: listed apart in the source
human CD27 [23] = target: T2, human CD27; assay: cell-based or functional assay; remark: listed apart in the source
[24] = target: T3, Macaca mulatta CD27 (mmCD27); assay: cell-based or functional assay
human CD27 [25] = target: T2, human CD27; assay: flow cytometry on primary T cells
human CD27 [26] = target: T2, human CD27; assay: cell ELISA on transfected CHO cells
Experimental: as §6

B1: 131AVH6VL6-hIgG1 (antibody)
heavy: not shown
light: EIVLTQSPATLSLSPGERATLSCSASSSVSYMHWYQQKPGQAPKRWIYDTSKLASGVPARFSGSGSGTDYSLTISSLEPEDFAVYYCQQWNSYPFTFGQGTKLEIKRTVAAPSVFIFPPSDEQLKSGTASVVCLLNNFYPREAKVQWKVDNALQSGNSQESVTEQDSKDSTYSLSSTLTLSKADYEKHKVYACEVTHQGLSSPVTKSFNRGEC
notes: also called hCD27.131A VH6VL6 huIgG1
EC50 (human CD27 (A59T) [1]): 0.097 nM
EC50 (human CD27 [2]): 0.072 nM
EC50 [3]: 0.054 nM
EC50 [4]: 0.17 nM
NF-κB-luciferase reporter assay, potency against human CD27 [5]: ~7 fold
Kd [6]: 51.5 nM
Kd [7]: 65.2 nM
NF-κB-luciferase reporter assay, EC50 (human CD27 (A59T) [8]): 4.72 nM
NF-κB-luciferase reporter assay, Emax (human CD27 (A59T) [8]): 3.22 fold change
NF-κB-luciferase reporter assay, EC50 (human CD27 [9]): 2.22 nM
NF-κB-luciferase reporter assay, Emax (human CD27 [9]): 2.96 fold change
NF-κB-luciferase reporter assay, EC50 [10]: 0.29 nM
NF-κB-luciferase reporter assay, Emax [10]: 2.11 fold change
EC50 (human CD27 [11]): 0.137 nM
Kd [12]: 4.3 nM
Kd [13]: 7.3 nM
Kd [14]: 5.1 nM
EC50 (human CD27 [15]): 0.32 nM
EC50 (human CD27 [16]): 0.155 nM
EC50 (human CD27 [17]): 0.123 nM
EC50 [18]: 0.22 nM
EC50 (human CD27 [19]): 0.3 nM

B2: 131AVH6VL6-hIgG2 (antibody)
heavy: EIQLVQSGAEVKKPGASVKVSCKASGYTFTNYGMNWVKQAPGQGLKWMGWINTNTGEPTYAEEFKGRFTFTLDTSISTAYMELSSLRSEDTAVYYCAREGDAMDYWGQGTTVTVSSASTKGPSVFPLAPCSRSTSESTAALGCLVKDYFPEPVTVSWNSGALTSGVHTFPAVLQSSGLYSLSSVVTVPSSNFGTQTYTCNVDHKPSNTKVDKTVERKCCVECPPCPAPPVAGPSVFLFPPKPKDTLMISRTPEVTCVVVDVSHEDPEVQFNWYVDGVEVHNAKTKPREEQFNSTFRVVSVLTVVHQDWLNGKEYKCKVSNKGLPAPIEKTISKTKGQPREPQVYTLPPSREEMTKNQVSLTCLVKGFYPSDIAVEWESNGQPENNYKTTPPMLDSDGSFFLYSKLTVDKSRWQQGNVFSCSVMHEALHNHYTQKSLSLSPGK
light: EIVLTQSPATLSLSPGERATLSCSASSSVSYMHWYQQKPGQAPKRWIYDTSKLASGVPARFSGSGSGTDYSLTISSLEPEDFAVYYCQQWNSYPFTFGQGTKLEIKRTVAAPSVFIFPPSDEQLKSGTASVVCLLNNFYPREAKVQWKVDNALQSGNSQESVTEQDSKDSTYSLSSTLTLSKADYEKHKVYACEVTHQGLSSPVTKSFNRGEC
notes: also called 131A6 IgG2 (humanized)
Kd [12]: 5.5 nM
Kd [13]: 8.2 nM
Kd [14]: 6.4 nM

B3: hCD27.15-c4 (antibody, human IgG4 S228P, kappa, V domains shown)
VH: EVRLQQSGADLVKPGASVKLSCTASGFIIKATYMHWVRQRPEQGLEWIGRIDPANGETKYDPKFQVKATITADTSSSTAYLQLNSLTSDDTAVYYCARYAWYFDVWGAGTTVTVSS
VL: DIQMTQSPASLSASVGDTVTITCRASENIYSFLAWYHQKQGRSPQLLVYHAKTLAEGVPSRFSGSGSGTQFSLKINSLQAEDFGSYYCQHYYGSPLTFGAGTKLEVKR
notes: also called hCD27.15 (chimeric c-4); C4-hCD27.15 chimeric antibody
binding result [20]: no binding
binding result (human CD27 [21]): binds

B4: hCD27.15-4B IgG4 (antibody, V domains shown)
VH: QVQLVQSGAEVKKPGASVKVSCKASGFIIKATYMHWVRQAPGQRLEWMGRIDPANGETKYDPKFQVRVTITADTSASTAYMELSSLRSEDTAVYYCARYAWYFDVWGQGTLVTVSS
VL: DIQMTQSPSSLSASVGDRVTITCRASENIYSFLAWYQQKPGKAPKLLIYHAKTLAEGVPSRFSGSGSGTDFTLTISSLQPEDFATYYCQHYYGSPLTFGQGTKVEIKR
NF-κB-luciferase reporter assay, Fold Change values at 2.5 µg/ml (human CD27 (A59T) [22]): 0.97 fold change
NF-κB-luciferase reporter assay, Fold Change values at 2.5 µg/ml (human CD27 [23]): 1.82 fold change
NF-κB-luciferase reporter assay, Fold Change values at 2.5 µg/ml [24]: 0.99 fold change

B5: hCD27.131A VH8VL8 huIgG1 (antibody, V domains shown)
VH: EIQLVQSGAEVKKPGASVKVSCKASGYTFTNYGMNWVKQAPGQGLKWMGWINTNTGEPTYAEEFKGRFTFTLDTSISTAYMELSSLRNEDTAVYYCAREGDAMDYWGQGTTVTVSS
VL: EIVLTQSPATLSASPGERVTLSCSASSSVSYMHWYQQKPGQAPKRWIYDTSKLASGVPARFSGSGSGTDYSLTISSMEPEDFAVYYCQQWNSYPFTFGQGTKLEIK
Kd [6]: 32.3 nM
Kd [7]: 61 nM
EC50 (human CD27 [11]): 0.135 nM
EC50 (human CD27 [16]): 0.145 nM
EC50 relative to 131AVH6VL6-hIgG1 (human CD27 [25]): ≤ 10 % above the EC50 of 131AVH6VL6-hIgG1
EC50 (human CD27 [17]): 0.131 nM
fold EC50 against 131AVH6VL6-hIgG1 (human CD27 [26]): ≤ 2 fold
